Measured values as given in the supplement of paper PMC9170038.

System: MS2 coat protein
Experiment: apparent KD of MS2 coat protein; designed switch direction (-1 OFF switch, 1 ON switch): 1; higher = weaker reporter binding
Method in brief: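 Three titration conditions were used: no input, 200 uM small-molecule ligand, and an oligonucleotide input. In each, SNAP-549-labelled MS2 coat protein was raised from 0.7 or 1.5 nM, doubling, to 3 µM over designed RNA switches transcribed on Illumina chips by stalled E. coli RNA polymerase. Curve fits of normalised cluster fluorescence gave values whose per-design median over clusters is the apparent KD.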

[1] = Eterna round: R95, input ligand: FMN 200 uM
[2] = Eterna round: R95, input ligand: microRNA oligo, concentration not stated
[3] = Eterna round: R95, input ligand: none
[4] = input ligand: microRNA oligo, concentration not stated

Sequence	apparent KD of MS2 coat protein [1] [nM]	apparent KD of MS2 coat protein [2] [nM]	apparent KD of MS2 coat protein [3] [nM]	apparent KD of MS2 coat protein (input ligand: FMN 200 uM) [nM]	apparent KD of MS2 coat protein [4] [nM]	apparent KD of MS2 coat protein (input ligand: none) [nM]
UCUUGGUUUUUGCUCGUUUUUUGUGUUGAACAUGAGGAUCACCCAUGUAUUGUACGGUCCAAUUUAGUAGUGGUCCG [JMF 25] (puzzle: Sensor for hsa-mir-208a)	26.6	15.3	26.2	–	–	–
UCUUGGUUUUUGCUCGUUUUUUGUGUUGAACAUGAGGAUCACCCAUGUAUUGUACGGUCCGAUUUAGUGAUGGUCCA [JMF 40] (puzzle: Sensor for hsa-mir-208a)	36.9	18.4	42.5	–	–	–
UCUUGGUUUUUGCUCGUUUUUUGUGUUGAACAUGAGGAUCACCCAUGUAUUGUACGGUCCGAUUUAGUGGUAGUCCG [JMF 72] (puzzle: Sensor for hsa-mir-208a)	34.7	23.5	36	–	–	–
UCUUGGUUUUUGCUCGUUUUUUGUGUUGAACAUGAGGAUCACCCAUGUAUUGUACGGUCCGGUUUGAUGAUGGUCCA [JMF 46] (puzzle: Sensor for hsa-mir-208a)	35.6	23.9	38.3	–	–	–
UGAAUAUUUACAGGAUAUGAGUUGUAUAGUGGGUCAGAAGGGUGGGUGUUUUGCACGGUGUGUUACAUGAGGAUCACCCAUGUU [SameState NG1 #27] (Eterna round: R96, puzzle: Same State NG 1)	–	–	–	129	74.5	146
UGACACACGGCAGGAUAUCGAUUGCAAAGCAAUCGAGAAGGGCCUCAUGUCGUGGAAACGUGACAUGAGGAUCACCCAUGUUGC [Omei SS(NG)1 Cv14] (Eterna round: R96, puzzle: Same State NG 1)	–	–	–	178	19.6	32.9
UGCCUGAGUCGAGGAUAUUAUGGAUCCUUUAAUACAUGAGGAUCACCCAUGUAAUUAAUUAUACAUGAGAAGGUGACUCAGGCA [SSNG2/11-B2] (Eterna round: R96, puzzle: Same State NG 2)	–	–	–	39	126	289
UGCUUCGUGUGAGGAUAUGCUGCCGUUUCGGCUGCAGAAGGUACUAUAAUACAUGAGGAUCACCCAUGUCUGUCGGUUUGCGGG [salish99_SSng1_r04_305-lowA] (Eterna round: R96, puzzle: Same State NG 1)	–	–	–	46.4	28.8	49.3
UGGAUCUAGGCUUGCCUGGGUCCAUGCUGACAUGAGGAUCACCCAUGUGCAUCCUACAAGCUUUUUGCUUGUCGGCU (puzzle: Sensor for hsa-mir-208a)	178	194	221	–	–	–
UGGAUCUAGGCUUGCCUGGGUCCUUCAAGACAUGAGGAUCACCCAUGUGUUUUUUUUUUGCUUUUUGUUUGUCUUGA [JL A Humble Attempt mod 2] (puzzle: Sensor for hsa-mir-208a)	50.8	15	23.1	–	–	–
UGGCUCAGACGAGGAUAUACGUGGUCACAUGAGGAUCACCCAUGUCUCGAGCUUCGGCUCGAGGCGUAGAAGGUGUCUGAGCCU [SSNG2/6-C3] (Eterna round: R96, puzzle: Same State NG 2)	–	–	–	237	363	662
UGGCUCAGACGAGGAUAUAUGUGAUCACAUGAGGAUCACCCAUGUCUCGAGCUUCGGCUCGAGACAUAGAAGGCGUCUGAGCCU [SSNG2/3-A3] (Eterna round: R96, puzzle: Same State NG 2)	–	–	–	512	12.3	17.8
UGGUAACAUGAGGAUCACCCAUGUCAAAUGAAUCGAGGAUAUGGGAAAGGAGAAGAGAAACCAGAAGGCGAAGUUG [Altered State 1-13 - Jieux - Same State 1] (puzzle: Same State 1)	50.7	54.1	51.9	–	–	–
UGGUAACAUGAGGAUCACCCAUGUCAAAUGAAUCUAGGAUAUGGGAAAGGAGAAGAGAAACCAGAAGGAGAGGUUG [Altered State 1-14 - Jieux - Same State 1] (puzzle: Same State 1)	179	63.1	107	–	–	–
